{
  "source": "the supplement of paper PMC10567573",
  "parents": {"B1": {"name": "SLC19A2 (parent)", "chain": "FHHIPSTCQRVNGIKVQNGGIVTD"}},
  "data": [
    {"variants_of": "B1", "assay": "protein stability index of a GFP-peptide fusion (GPS, HEK-293T) (PSI 1-6); higher = more stable", "details": "c terminus: a fixed tail appended", "values": [
      {"variant": "FHHIPSTCQRVNGIKVQNGGIGTD", "note": "[V22G]", "protein stability index": 1.56},
      {"variant": "FHHIPSTCQRVNGIKVQNGGIITD", "note": "[V22I]", "protein stability index": 1.73},
      {"variant": "FHHIPSTCQRVNGIKVQNGGITTD", "note": "[V22T]", "protein stability index": 2.52},
      {"variant": "LHHIPSTCQRVNGIKVQNGGIVTD", "note": "[F1L]", "protein stability index": 2.81},
      {"variant": "PHHIPSTCQRVNGIKVQNGGIVTD", "note": "[F1P]", "protein stability index": 3.84},
      {"variant": "WHHIPSTCQRVNGIKVQNGGIVTD", "note": "[F1W]", "protein stability index": 1.85},
      {"variant": "GHHIPSTCQRVNGIKVQNGGIVTD", "note": "[F1G]", "protein stability index": 3.78},
      {"variant": "IHHIPSTCQRVNGIKVQNGGIVTD", "note": "[F1I]", "protein stability index": 3.46},
      {"variant": "MHHIPSTCQRVNGIKVQNGGIVTD", "note": "[F1M]", "protein stability index": 3.33},
      {"variant": "KHHIPSTCQRVNGIKVQNGGIVTD", "note": "[F1K]", "protein stability index": 2.78},
      {"variant": "THHIPSTCQRVNGIKVQNGGIVTD", "note": "[F1T]", "protein stability index": 3.66},
      {"variant": "FHHIPSTCQRVNGIKVQFGGIVTD", "note": "[N18F]", "protein stability index": 2.04},
      {"variant": "FHHIPSTCQRVNGIKVQDGGIVTD", "note": "[N18D]", "protein stability index": 1.81},
      {"variant": "FHHIPSTCQRVNGIKVQSGGIVTD", "note": "[N18S]", "protein stability index": 1.92},
      {"variant": "FHHIPSTCQRVNGIKVQAGGIVTD", "note": "[N18A]", "protein stability index": 1.77},
      {"variant": "FHHIPSTCQRVNGIKVQQGGIVTD", "note": "[N18Q]", "protein stability index": 1.48},
      {"variant": "FHHIPSTCQRVNGIKVQTGGIVTD", "note": "[N18T]", "protein stability index": 1.65},
      {"variant": "FHHIPSTCQRVNGIKVQCGGIVTD", "note": "[N18C]", "protein stability index": 1.52},
      {"variant": "FVHIPSTCQRVNGIKVQNGGIVTD", "note": "[H2V]", "protein stability index": 2.35},
      {"variant": "FSHIPSTCQRVNGIKVQNGGIVTD", "note": "[H2S]", "protein stability index": 3.17},
      {"variant": "FLHIPSTCQRVNGIKVQNGGIVTD", "note": "[H2L]", "protein stability index": 2.21},
      {"variant": "FQHIPSTCQRVNGIKVQNGGIVTD", "note": "[H2Q]", "protein stability index": 2.83},
      {"variant": "FGHIPSTCQRVNGIKVQNGGIVTD", "note": "[H2G]", "protein stability index": 3.01},
      {"variant": "FRHIPSTCQRVNGIKVQNGGIVTD", "note": "[H2R]", "protein stability index": 2.61},
      {"variant": "FYHIPSTCQRVNGIKVQNGGIVTD", "note": "[H2Y]", "protein stability index": 1.85},
      {"variant": "FIHIPSTCQRVNGIKVQNGGIVTD", "note": "[H2I]", "protein stability index": 2.04},
      {"variant": "FTHIPSTCQRVNGIKVQNGGIVTD", "note": "[H2T]", "protein stability index": 2.4},
      {"variant": "FCHIPSTCQRVNGIKVQNGGIVTD", "note": "[H2C]", "protein stability index": 2.28},
      {"variant": "FHHIPSTGQRVNGIKVQNGGIVTD", "note": "[C8G]", "protein stability index": 2.07},
      {"variant": "FHHIPSTQQRVNGIKVQNGGIVTD", "note": "[C8Q]", "protein stability index": 1.97},
      {"variant": "FHHIPSTWQRVNGIKVQNGGIVTD", "note": "[C8W]", "protein stability index": 1.93},
      {"variant": "FHHIPSTDQRVNGIKVQNGGIVTD", "note": "[C8D]", "protein stability index": 2.38},
      {"variant": "FHHIPSTFQRVNGIKVQNGGIVTD", "note": "[C8F]", "protein stability index": 1.97},
      {"variant": "FHHIPSTCIRVNGIKVQNGGIVTD", "note": "[Q9I]", "protein stability index": 1.65},
      {"variant": "FHHIPSTCTRVNGIKVQNGGIVTD", "note": "[Q9T]", "protein stability index": 1.84},
      {"variant": "FHHIPSTCPRVNGIKVQNGGIVTD", "note": "[Q9P]", "protein stability index": 1.81},
      {"variant": "FHHIPSTCMRVNGIKVQNGGIVTD", "note": "[Q9M]", "protein stability index": 2.27},
      {"variant": "FHHIPSTCVRVNGIKVQNGGIVTD", "note": "[Q9V]", "protein stability index": 2.04},
      {"variant": "FHHIPSTCQRVEGIKVQNGGIVTD", "note": "[N12E]", "protein stability index": 2.04},
      {"variant": "FHHIPSTCQRVDGIKVQNGGIVTD", "note": "[N12D]", "protein stability index": 2.86},
      {"variant": "FHHIPSTCQRVPGIKVQNGGIVTD", "note": "[N12P]", "protein stability index": 2.05},
      {"variant": "FHHIPSTCQRVSGIKVQNGGIVTD", "note": "[N12S]", "protein stability index": 2.36},
      {"variant": "FHHIPSTCQRVFGIKVQNGGIVTD", "note": "[N12F]", "protein stability index": 1.74},
      {"variant": "FHHIPSTCQRVYGIKVQNGGIVTD", "note": "[N12Y]", "protein stability index": 1.78},
      {"variant": "FHHIPSTCQRVTGIKVQNGGIVTD", "note": "[N12T]", "protein stability index": 1.78},
      {"variant": "FHHIPSTCQRVRGIKVQNGGIVTD", "note": "[N12R]", "protein stability index": 2.47},
      {"variant": "FHHIPSTCQRVCGIKVQNGGIVTD", "note": "[N12C]", "protein stability index": 1.84},
      {"variant": "FHHIPSTCQRVVGIKVQNGGIVTD", "note": "[N12V]", "protein stability index": 1.82},
      {"variant": "FHHIVSTCQRVNGIKVQNGGIVTD", "note": "[P5V]", "protein stability index": 1.91},
      {"variant": "FHHICSTCQRVNGIKVQNGGIVTD", "note": "[P5C]", "protein stability index": 1.86},
      {"variant": "FHHIKSTCQRVNGIKVQNGGIVTD", "note": "[P5K]", "protein stability index": 2.61},
      {"variant": "FHHIRSTCQRVNGIKVQNGGIVTD", "note": "[P5R]", "protein stability index": 1.58},
      {"variant": "FHHISSTCQRVNGIKVQNGGIVTD", "note": "[P5S]", "protein stability index": 3.55},
      {"variant": "FHHINSTCQRVNGIKVQNGGIVTD", "note": "[P5N]", "protein stability index": 2.11},
      {"variant": "FHHIWSTCQRVNGIKVQNGGIVTD", "note": "[P5W]", "protein stability index": 2.91},
      {"variant": "FHHIHSTCQRVNGIKVQNGGIVTD", "note": "[P5H]", "protein stability index": 1.79},
      {"variant": "FHHIMSTCQRVNGIKVQNGGIVTD", "note": "[P5M]", "protein stability index": 2.23},
      {"variant": "FHHIYSTCQRVNGIKVQNGGIVTD", "note": "[P5Y]", "protein stability index": 2.33},
      {"variant": "FHHIASTCQRVNGIKVQNGGIVTD", "note": "[P5A]", "protein stability index": 1.97},
      {"variant": "FHHIPSTCQRVNGIKVQNGGIVTR", "note": "[D24R]", "protein stability index": 1.89},
      {"variant": "FHHIPSTCQRVNGIKVQNGGIVTG", "note": "[D24G]", "protein stability index": 1.16},
      {"variant": "FHHIPSTCQRVNGIKVQNGGIVTM", "note": "[D24M]", "protein stability index": 2.38},
      {"variant": "FHHIPSTCQRVNGIKVQNGGIVTH", "note": "[D24H]", "protein stability index": 2.11},
      {"variant": "FHHIPSTCQRVNGIKVQNGGIVTT", "note": "[D24T]", "protein stability index": 1.7},
      {"variant": "FHHIPSTCQRVNGIKVQNGGIVTC", "note": "[D24C]", "protein stability index": 1.5},
      {"variant": "FHHIPSTCQRVNGIKVQNGGIVTN", "note": "[D24N]", "protein stability index": 2.47},
      {"variant": "FHHIPSTCQRVNGIKVQNGGIVTI", "note": "[D24I]", "protein stability index": 2.06},
      {"variant": "FHHIPSTCQRVNGIKVQNGGIVTP", "note": "[D24P]", "protein stability index": 1.72},
      {"variant": "FHHIPSTCQRVNGIKVQNGGIVTK", "note": "[D24K]", "protein stability index": 2.64},
      {"variant": "FHHIPSTCQRVNGIKVQNYGIVTD", "note": "[G19Y]", "protein stability index": 1.74},
      {"variant": "FHHIPSTCQRVNGIKVQNFGIVTD", "note": "[G19F]", "protein stability index": 2.25},
      {"variant": "FHHIPSTCQRVNGIKVQNSGIVTD", "note": "[G19S]", "protein stability index": 1.51},
      {"variant": "FHHIPSTCQRVNGIKVQNMGIVTD", "note": "[G19M]", "protein stability index": 1.27},
      {"variant": "FHHIPSTCQRVNGIKVQNPGIVTD", "note": "[G19P]", "protein stability index": 2.04},
      {"variant": "FHHIPSTCQRVNGIKVQNCGIVTD", "note": "[G19C]", "protein stability index": 2.34},
      {"variant": "FHHIPSTCQRVNGIKVQNNGIVTD", "note": "[G19N]", "protein stability index": 2.37},
      {"variant": "FHHIPSTCQRVNGIKVQNGGIVGD", "note": "[T23G]", "protein stability index": 1.67},
      {"variant": "FHHIPSTCQRVNGIKVQNGGIVQD", "note": "[T23Q]", "protein stability index": 2.44},
      {"variant": "FHHIPSTCQRVNGIKVQNGGIVSD", "note": "[T23S]", "protein stability index": 2.18},
      {"variant": "FHHIPSTCQRVNGIKVQNGGIVLD", "note": "[T23L]", "protein stability index": 1.95},
      {"variant": "FHHIPSTCQRVNGIKVQNGGIVMD", "note": "[T23M]", "protein stability index": 2.15},
      {"variant": "FHHIPSTCQRVNGIKVQNGGIVID", "note": "[T23I]", "protein stability index": 1.57},
      {"variant": "FHHIPSTCQRVNGIEVQNGGIVTD", "note": "[K15E]", "protein stability index": 2.22},
      {"variant": "FHHIPSTCQRVNGITVQNGGIVTD", "note": "[K15T]", "protein stability index": 2.19},
      {"variant": "FHHIPSTCQRVNGIHVQNGGIVTD", "note": "[K15H]", "protein stability index": 2.37},
      {"variant": "FHHIPSTCQRVNGIRVQNGGIVTD", "note": "[K15R]", "protein stability index": 2.2},
      {"variant": "FHHIPSTCQRVNGINVQNGGIVTD", "note": "[K15N]", "protein stability index": 2.05},
      {"variant": "FHHIPSTCQRVNGIKVQNGGAVTD", "note": "[I21A]", "protein stability index": 2.46},
      {"variant": "FHHIPSTCQRVNGIKVQNGGGVTD", "note": "[I21G]", "protein stability index": 2.2},
      {"variant": "FHHIPSTCQRVNGIKVQNGGDVTD", "note": "[I21D]", "protein stability index": 2.24},
      {"variant": "FHHIPSTCQRVNGIKVQNGGCVTD", "note": "[I21C]", "protein stability index": 1.79},
      {"variant": "FHHIPSTCQRVNGIKVQNGGEVTD", "note": "[I21E]", "protein stability index": 2.15},
      {"variant": "FHHIPSTCQRVNGIKVQNGGSVTD", "note": "[I21S]", "protein stability index": 1.85},
      {"variant": "FHHIPSTCQRVNGIKVQNGGRVTD", "note": "[I21R]", "protein stability index": 2.43}
    ]}
  ]
}
